The results in this text go back to US20220204603A1 (PHARMABCINE, published 2022).

Experiment [1] addresses T1, biotinylated human Ang2 protein (human, UniProt O15123 19-496, limits assumed, biotinylated (sites not given)).
T1 construct: also called hAng2
T1 sequence (looked up): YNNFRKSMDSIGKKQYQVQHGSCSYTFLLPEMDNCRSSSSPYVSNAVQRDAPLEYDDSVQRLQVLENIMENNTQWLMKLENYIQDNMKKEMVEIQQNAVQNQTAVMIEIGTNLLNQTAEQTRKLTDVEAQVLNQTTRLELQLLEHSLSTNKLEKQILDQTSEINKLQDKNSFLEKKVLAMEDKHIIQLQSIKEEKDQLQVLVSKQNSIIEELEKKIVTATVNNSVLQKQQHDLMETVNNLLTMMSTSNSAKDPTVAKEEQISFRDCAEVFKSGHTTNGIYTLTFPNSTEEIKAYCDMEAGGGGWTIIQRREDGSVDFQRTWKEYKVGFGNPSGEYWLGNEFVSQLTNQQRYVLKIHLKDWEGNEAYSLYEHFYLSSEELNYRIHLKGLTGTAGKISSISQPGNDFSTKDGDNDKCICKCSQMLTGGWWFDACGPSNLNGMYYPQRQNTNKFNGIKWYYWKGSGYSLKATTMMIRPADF
The experiment is described as follows: competition ELISA: antibody preincubated with biotinylated hAng2, binding to coated human Tie2-Fc. The method, then:
1 μg/ml (100 μl per well) of a human Ti32-Fc (R&D Systems, 313-TI) or mouse Tie2-Fc (R&D Systems, 762-T2-100) solution, an integrin α3/β1 solution (R&D systems, 2840-A3-050), or an integrin α5/β1 solution (R&D systems, 3230-A5-050) was added to a 96-well immunoplate (Nunc, US) and then allowed to stand overnight at 4° C. for adsorption. The next day, the plate was washed four times with PBS containing 0.05% Tween-20 (hereinafter, referred to as PBST), and 200 μl of a 2% BSA/PBST solution was added to each well and then allowed to stand at room temperature for 1 hour to perform blocking. Anti-Ang2 candidate antibodies were serially diluted 4-fold at a maximum of 1000 nM, and biotinylated human Ang2 protein was made to a final concentration of 100 ng/mL or 625 ng/mL, followed by previous binding at room temperature for 1 hour. […] The plate was washed three times with PBST, 100 μl of HRP-conjugated streptavidin (R&D Systems, DY998) diluted to 1:200 was added to allow a reaction to occur at room temperature for 1 hour, thereby inducing binding, and the plate was washed four times with PBST, followed by color development using 100 μl of a TMB substrate reagent. The color development reaction was stopped by adding 50 μl of 2N H₂SO₄, and a Sunrise microplate reader (TECAN, CH) was used to measure specific absorbance OD₄₅₀ (FIGS. 4 and 5).

Experiment [2] deals with T2, human Ang2 (construct not stated) (human, UniProt O15123 19-496, limits assumed).
T2 construct: also called hAng2
T2 sequence (looked up): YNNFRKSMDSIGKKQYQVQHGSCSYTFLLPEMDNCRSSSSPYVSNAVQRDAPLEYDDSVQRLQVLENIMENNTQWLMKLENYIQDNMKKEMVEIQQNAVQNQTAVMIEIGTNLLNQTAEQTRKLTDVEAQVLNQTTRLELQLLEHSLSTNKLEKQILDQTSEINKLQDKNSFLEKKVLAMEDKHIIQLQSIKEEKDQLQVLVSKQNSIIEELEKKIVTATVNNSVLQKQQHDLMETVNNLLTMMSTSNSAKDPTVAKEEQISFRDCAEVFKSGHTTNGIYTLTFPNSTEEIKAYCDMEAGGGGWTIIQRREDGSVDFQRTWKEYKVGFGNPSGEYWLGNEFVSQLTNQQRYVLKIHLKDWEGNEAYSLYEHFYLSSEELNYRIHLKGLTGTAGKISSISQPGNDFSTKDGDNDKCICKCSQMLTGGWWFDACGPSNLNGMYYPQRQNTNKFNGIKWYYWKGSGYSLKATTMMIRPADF
Put plainly: SPR Biacore T200, antibody captured on protein A chip, Ang2 as analyte, 1:1 model. Here is the method:
(§1) To analyze the binding affinity of the selected anti-Ang2 antibodies, affinity analysis for human Ang2 and mouse Ang2 was performed using BIACORE® T200 (GE Healthcare). A protein A sensor chip was used, and an experiment was conducted in accordance with the manufacturer's manual. Detailed analysis conditions are as follows. 2000 response units (RU) of protein A were immobilized, 25 RU of anti-Ang2 antibody candidates were used for binding, and various concentrations of human Ang2 and mouse Ang2 were allowed to bind. The starting concentrations for analysis are 100 nM and 150 nM, respectively. The analysis proceeded at a flow rate of 30 μl/min, the binding and dissociation time of human Ang2 was measured as 300 seconds and 2000 seconds, respectively, and the binding and dissociation time of mouse Ang2 was analyzed as 300 seconds and 1000 seconds, respectively. Analysis was performed using a 1:1 binding model as an analytical model.

The target in experiment [3] is T3, mouse Ang2 (construct not stated) (mouse, UniProt O35608 19-496, limits assumed).
T3 construct: also called mAng2
T3 sequence (looked up): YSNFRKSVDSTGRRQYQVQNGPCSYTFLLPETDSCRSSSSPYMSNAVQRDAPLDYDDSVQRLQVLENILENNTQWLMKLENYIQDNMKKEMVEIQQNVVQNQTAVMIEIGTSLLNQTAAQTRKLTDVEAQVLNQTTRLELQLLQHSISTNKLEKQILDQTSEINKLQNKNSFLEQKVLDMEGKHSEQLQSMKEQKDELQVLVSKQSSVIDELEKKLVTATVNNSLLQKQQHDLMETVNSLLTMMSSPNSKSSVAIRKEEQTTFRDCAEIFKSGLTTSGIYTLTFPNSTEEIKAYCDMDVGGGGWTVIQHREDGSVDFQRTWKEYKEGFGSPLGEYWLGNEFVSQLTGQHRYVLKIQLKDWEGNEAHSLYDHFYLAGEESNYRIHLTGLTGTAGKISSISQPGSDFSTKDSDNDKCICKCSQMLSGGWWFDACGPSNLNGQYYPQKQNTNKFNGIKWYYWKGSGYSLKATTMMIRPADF
The description is as above. Here is the method: as §1

B1: No. 3 anti-Ang2 antibody (IgG) (antibody, V domains shown)
VH: QMQLVQSGGGLVQPGRSLKLSCAASGFSFDDYAMHWVRQAPGKGLEWVATIKDDGSQTYYVDSVKGRFTISRDNAKSSLFLQMNSLRAEDTAVYYCTTEGLMNGLHFDMWGQGTMVTVSS
VL: LVLTQPPSVSGAPGQGVTISCTGSSSNIGAGYDVHWYQQFPGTAPKLLISGNNNRPSGLPDRFSGSKSGTSASLAITGLQAEDEADYYCQSYDSRLGVVFGGGTKLTVLG
notes: IgG form: VH cloned into Invivogen pfusess-hchg1 (heavy chain constant region), VL into Invivogen pfuse2ss-hclk (light chain constant region); Expressed in Expi293F, purified on Protein A; also called 1D10
B1 returned an IC50 in experiment [1] of 0.491 nM. Further, in experiment [2], the affinity, expressed as Kd, was 0.127 nM; the off-rate constant (koff) is 4.22e-05 s⁻¹; the kon is 334000 M⁻¹ s⁻¹. Besides, in experiment [3], the Kd was 0.538 nM, the koff is 8.53e-05 s⁻¹ and the on-rate constant (kon) was 158000 M⁻¹ s⁻¹.

B2: No. 4 anti-Ang2 antibody (IgG) (antibody, V domains shown)
VH: QVQLVESGAEVKRPGESLRISCKTSGYSFTSYWIHWVRQMPGKELEWMGSIYPGNSDTRYSPSFQGHVTISADSSSSTAYLQWSSLKASDTAMYYCTTEGLMNGLHFDMWGQGTMVTVSS
VL: DIVMTQTPLSLPVTPGEPASISCRSSQSLLHSLGDNYLDWYLQKPGQSPQLLIYLGSKRAAGVPDRFSGSGSGTDFTLKISRVEAEDVGVYYCMQSLQTPPYTFGQGTKLEIKR
notes: IgG form: VH cloned into Invivogen pfusess-hchg1, VL into Invivogen pfuse2ss-hclk; also called 2D8
In experiment [1], B2 showed an IC50 of 0.462 nM. In experiment [2], this molecule registered a Kd of 0.217 nM, a koff of 5.93e-05 s⁻¹ and an on-rate (kon) of 273000 M⁻¹ s⁻¹. In experiment [3], this molecule showed a Kd of 0.45 nM, a koff of 7.05e-05 s⁻¹ and a kon of 157000 M⁻¹ s⁻¹.

B3: No. 46 anti-Ang2 antibody (IgG) (antibody, V domains shown)
VH: QVQLVESGGGLVQPGRSLRLSCAASGFTFDDCAMHWVRQAPGKGLEWVSGISGNSKNVAYADSVKGRFSISRDDAKNSLYLQMNSLRAEDTAVYYCARDPAYSQFDYWGQGTLITVSS
VL: QSALTQPPSLSATPGQRVTISCSGSSSNVGGYPVNWYQQVPGAAPKLLMYTDYKRPSGVPDRFFGSKSGTSASLAISGLQSEDEADYYCATWDDNLNGYVFGTGTKVTVLG
notes: IgG form: VH cloned into Invivogen pfusess-hchg1, VL into Invivogen pfuse2ss-hclk; also called 3C6
On to B3, for which the IC50 in experiment [1] is 0.337 nM. In experiment [2], this molecule showed a Kd of 0.314 nM, a koff of 8.62e-05 s⁻¹ and an on-rate constant (kon) of 274000 M⁻¹ s⁻¹. Also, in experiment [3], the Kd came to 0.193 nM, the koff worked out at 8.94e-05 s⁻¹ and the kon came to 465000 M⁻¹ s⁻¹.

B4: No. 8 anti-Ang2 antibody (IgG) (antibody, V domains shown)
VH: QVQLVESGGGLVKPGGSLRLSCAASGFTFSSYSMNWVRQAPGKGLEWVSSISASDGATYYADSVRGRFTISRDNSRSTLYLQMNSLRAEDTAVYYCAKILAGYSGPMGGMDVWGQGTTVTVSS
VL: DIQMTQSPSSLSASVGDRVTITCRASRDISNYLAWYQQKPGKAPKSLIYGASNLQSGVSSQFSGSGSGTDFTLTINSLQPEDSATYYCQQYYSYPLTFGGGTKVDIKR
notes: IgG form: VH cloned into Invivogen pfusess-hchg1, VL into Invivogen pfuse2ss-hclk; also called 3A10
For B4, the IC50 in experiment [1] stood at 0.495 nM. Besides, in experiment [2], the Kd amounted to 0.163 nM, the koff amounted to 4.37e-05 s⁻¹ and the kon was 268000 M⁻¹ s⁻¹. In addition, in experiment [3], binding was put at a Kd of 0.463 nM, the koff worked out at 6.69e-05 s⁻¹ and the association rate constant (kon) was 144000 M⁻¹ s⁻¹.

B5: No. 41 anti-Ang2 antibody (IgG) (antibody, V domains shown)
VH: QVQLVESGGGLVQPGGSLRLSCEASGFAFGRYEMNWVRQAPGKGLEWIAYIDTGGGAKVYADSVKGRFTISRDDSKNSLYLQMNSLRAEDTAVYYCTTEGLMNGLHFDMWGQGTMITVSS
VL: DIQMTQSPSTLSASVGDRVAITCRASQAISTWLAWYQQKPGKAPKLLIYTASTLESGVPSRFSGSGSGTDFTLTINSLQPDDFATYYCQQLNSYPYTFGGGTKVEIKR
notes: IgG form: VH cloned into Invivogen pfusess-hchg1, VL into Invivogen pfuse2ss-hclk; also called 2B2
Turning to B5, the IC50 in experiment [1] was found to be 0.475 nM. Further, in experiment [2], the Kd is 0.243 nM, the koff came out at 7.77e-05 s⁻¹ and the kon came out at 320000 M⁻¹ s⁻¹. For the same molecule, in experiment [3], the equilibrium dissociation constant (Kd) is 0.328 nM, the koff is 9.47e-05 s⁻¹ and the kon turned out to be 289000 M⁻¹ s⁻¹.
